Tests used:
[1] = biological target: FcgammaRIIIA (CD16a), F allotype (human) (UniProt P08637); experiment: SPR equilibrium fit; reference WT IgG1
[2] = biological target: FcgammaRIIB (CD32b) (human) (UniProt P31994); experiment: SPR equilibrium fit; reference WT IgG1
Sequence of FcgammaRIIB (CD32b) (human) (P31994 43-217 limits assumed): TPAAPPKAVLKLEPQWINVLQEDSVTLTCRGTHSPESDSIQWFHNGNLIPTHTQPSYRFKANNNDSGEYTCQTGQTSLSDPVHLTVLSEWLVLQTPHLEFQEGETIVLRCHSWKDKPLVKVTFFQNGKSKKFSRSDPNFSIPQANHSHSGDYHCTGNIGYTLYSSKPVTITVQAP

Sequence of FcgammaRIIIA (CD16a), F allotype (human) (P08637 17-208 limits assumed): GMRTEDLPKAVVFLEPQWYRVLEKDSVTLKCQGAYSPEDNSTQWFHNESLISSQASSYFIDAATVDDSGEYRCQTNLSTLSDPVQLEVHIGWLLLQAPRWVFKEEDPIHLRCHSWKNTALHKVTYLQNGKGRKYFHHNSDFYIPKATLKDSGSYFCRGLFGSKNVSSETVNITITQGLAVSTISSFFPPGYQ

| Ratio WT/Variant of kD [1] | Ratio WT/Variant of kD [2] | Substance |
| --- | --- | --- |
| 1.28 | 1.68 | Control 1 (K409D_K392D/D399K_D356K) (antibody) |
| 1.1 | 1.13 | Control 2 (T366S_L368A_Y407V/T366W) (antibody) |

— patent publication US20210277150A1
